The record followed here is the supplement of paper PMC9170038.

The subject of the data set is MS2 coat protein. Description: apparent KD of MS2 coat protein; higher = weaker reporter binding. The conditions noted are these: Eterna round: R107. Here is the method:
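RNA-MaP round R107: designed RNA switches with theophylline, tryptophan, arginine or FMN aptamers are transcribed on-chip within common flanks. They are titrated with SNAP-549-labelled MS2 coat protein in RNA-MaP buffer (100 mM Tris pH 7.5, 80 mM KCl, 4 mM MgCl2), without ligand or with the indicated ligand. Median apparent KD per design.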

The mark [1] stands for this setting: input ligand: theophylline 20 uM.
Setting [2] is: input ligand: theophylline 2 mM.
Where [3] appears, read: input ligand: tryptophan 2.4 mM.

Turning to “GAUGAUAUUGCAGAUACCAGACACAUGAGGAUCACCCAUGUCGCUGGGUCGCUGGGUCGUGUCCCUUGGCAGCUGCGAUAUCAUC [Tibet]”, the “apparent KD of MS2 coat protein” value was 16.3 nM (input ligand: arginine 13.2 mM); 20.3 nM (input ligand: none); 47.8 nM under setting [1]; 339 nM under setting [2]; 21.4 nM under setting [3].

With “GGUGAUCCGUAUCACCGGAUCACCGGUGAUACCAGCAUCGAAAGAUGCCCUUGGCAGCACCAACAUGAGGAUCACCCAUGUAAUA [(M)'-(T)'-(M)''-(T1)-(T2)-(M1)-(M2)_Design6b]”, the “apparent KD of MS2 coat protein” value by setting is: (input ligand: arginine 13.2 mM) 69.6 nM; under setting [1], 62.4 nM; under setting [3], 143 nM.

On to “GCUUCACAUGAGGAUCACCCAUGUCCGGAUACCAGCUCUCCAGACAGCCCUUGGCAGCCGAGCGCCCGAUUAUAUACCCUAGGAG [theeternabot_sameState_MS2_Theo_A_28]”, for which the “apparent KD of MS2 coat protein” value (input ligand: arginine 13.2 mM) amounted to 21.1 nM, the “apparent KD of MS2 coat protein” value under setting [1] was found to be 53.7 nM and the “apparent KD of MS2 coat protein” value under setting [3] stood at 27.9 nM.

For “ACAUGAACAUGAGGAUCACCCAUGUGGGAUACCAGCGUGUAUGAGCGCCCUUGGCAGCUCAUGACAUGAGGAUCACCCAUGUUGG [Exclusion Theophylline A 4]”, the “apparent KD of MS2 coat protein” value runs as follows: (input ligand: arginine 13.2 mM) 154 nM; under setting [1], 242 nM; under setting [3], 224 nM.

With “AGACAUGAGGAUCACCCAUGUAGUACGGAUACCAGAUCCAGAUGUAUCCCUUGGCAGCUGUGGUACAGCGUUACAUCGCUCCUAG [Exclusion - Theophylline A (Freestyle 20)]”, the “apparent KD of MS2 coat protein” value is, setting by setting: (input ligand: arginine 13.2 mM) 15.9 nM; under setting [1], 24.4 nM; under setting [3], 15.8 nM.

“UUAAUCUUGGAUGAAAACAUUUAAGCAGAAGGAGCGUGAUAAAACACAGGUAGGUCGCUGAAGGGAACAUGAGGAUCACCCAUGU [AstrosSSArgA#15]”: the “apparent KD of MS2 coat protein” value reads like this: (input ligand: arginine 13.2 mM) 22.5 nM; (input ligand: none) 38 nM; under setting [1], 28.8 nM; under setting [2], 31.7 nM; under setting [3], 32.9 nM.

“GCAUCCUAGUCGGCCGCCACUGCGAAUAGGUCCUGAGUGAUCUAACAUGAGGAUCACCCAUGUAGCAGGACCGGGACUAGGAUGC [(Trp1)-(TM)''-(TM)'-(Ms2)-(Trp2)_Design5]”: the “apparent KD of MS2 coat protein” value is 12.8 nM (input ligand: arginine 13.2 mM); 16.5 nM (input ligand: none); 22.3 nM under setting [1]; 23 nM under setting [2]; 17.3 nM under setting [3].

Consider “GGUAUGUAUUCGGAAACGAAUGCAUACCAACGAGGACCGGUACGGCCGCCACUCGGCGGCGAUCAACAUGAGGAUCACCCAUGUA [Ex Tryptophan A 3]”, for which the “apparent KD of MS2 coat protein” value is, setting by setting: (input ligand: arginine 13.2 mM) 26.2 nM; under setting [1], 43.7 nM; under setting [2], 42.4 nM.

With “UACCGAUACGGAAGGAGCGUAGAAGUAGUACAUGAGGAUCACCCAUGUAUGGGUAAUUUCGUACAGGUAGGUCGCCGUAUCGGUA [SSAB NP+V+V2 #23]”, the “apparent KD of MS2 coat protein” value runs as follows: (input ligand: arginine 13.2 mM) 23.3 nM; (input ligand: none) 31.8 nM; under setting [1], 38.3 nM; under setting [2], 40 nM; under setting [3], 35.5 nM.

On to “UGUAUGUGAUCUGAUACCAGAGUUGAUAAUCUGAGGAUCACCCUGGUAAGGCGAAAGCCGCUCCCUUGGCAGCAGAUCGCAUACU”, for which the “apparent KD of MS2 coat protein” value amounted to 526 nM (input ligand: arginine 13.2 mM); 946 nM (input ligand: none); 969 nM under setting [1]; 244 nM under setting [2]; 884 nM under setting [3].

On to “GGAUGGAACUCGGCCGCCACUGGUGAUCCUAAUGUACAUGAGGAUCACCCAUGUACAUGAGAAGAUAGGACCGGGAGAUAACAUG [V5]”, for which the “apparent KD of MS2 coat protein” value (input ligand: arginine 13.2 mM) worked out at 23.5 nM, the “apparent KD of MS2 coat protein” value under setting [1] was determined as 31.2 nM and the “apparent KD of MS2 coat protein” value under setting [2] was 29.4 nM.

“GGCAGUCAUAGCAGGGCAAAUAUACUCGAAGGAGCGUCAUAGUAGGCAGGUAGGUCGCGAGACAUGAGGAUCACCCAUGUAGAGA [uuumullin]”: the “apparent KD of MS2 coat protein” value was found to be 26.1 nM (input ligand: arginine 13.2 mM); 68.9 nM (input ligand: none); 46 nM under setting [1]; 66 nM under setting [2]; 49.3 nM under setting [3].

Turning to “GGAGGUACCUGAAGGAGCGACAUGAGGAUCACCCAUGUCUCCCGUUAUGGGAGUUCUUUAGGUCAGGUAGGUCGCAGGUACCUCC [#1 Exclusion - Arginine B Attempt #3 (Inspired by Omei)]”, the “apparent KD of MS2 coat protein” value was 13.7 nM (input ligand: arginine 13.2 mM) and 88.2 nM (input ligand: none).

As for “UGAUCCUACAGAGAUACCAGUGCCGCUGAGUGACCAGACACAUGAGGAUCACCCAUGUAACACCCUUGGCAGCUCAACUAGAGGG [Same State Theophylline B GF19]”, the “apparent KD of MS2 coat protein” value runs as follows: (input ligand: arginine 13.2 mM) 12.8 nM; (input ligand: none) 18.4 nM; under setting [1], 18.7 nM; under setting [2], 98.7 nM; under setting [3], 22 nM.

On to “GCUGGGUGCGCAAGGACCUGGCGUUGCGAUACCAGCACGGUAACGUGCCCUUGGCAGCGCACAUGAGGAUCACCCAUGUGGUGUG [#1 Exclusion - Theophylline A Attempt #20 (HarryS)]”, for which the “apparent KD of MS2 coat protein” value (input ligand: arginine 13.2 mM) was found to be 96.8 nM; the “apparent KD of MS2 coat protein” value (input ligand: none) worked out at 230 nM; the “apparent KD of MS2 coat protein” value under setting [1] stood at 333 nM; the “apparent KD of MS2 coat protein” value under setting [2] came out at 301 nM; the “apparent KD of MS2 coat protein” value under setting [3] is 162 nM.

For “UUAAUCUUUAUUGAAAACAAUAAAGCAGAAGGAGCGUGAUAAAACACAGGUAGGUCGCUGAAGGGAACAUGAGGAUCACCCAUGU [AstrosSSArgA#13]”, the “apparent KD of MS2 coat protein” value worked out at 36.4 nM (input ligand: arginine 13.2 mM); 26.6 nM (input ligand: none); 32 nM under setting [1]; 35.1 nM under setting [2]; 24.1 nM under setting [3].

Consider “ACGUAAUGCAGAAGGAGCGUCUUUUUAAAACAUGAGGAUCACCCAUGUAAUAUUUAUGGGAGACAGGUAGGUCGCUGAAGUACGA [JR_SSArginiB_Sub006]”, for which the “apparent KD of MS2 coat protein” value was 30.3 nM (input ligand: arginine 13.2 mM); 23.5 nM (input ligand: none); 32.3 nM under setting [1]; 22.3 nM under setting [2]; 25.3 nM under setting [3].

As for “AGAUUCGACACGGCCGCCACUUUCAGUGGCUGGUCACAUGGUGCACAUGAGGAUCACCCAUGUGGAAGGACCGGGUGUUGAGUCU [XTryp B #25]”, the “apparent KD of MS2 coat protein” value was 23 nM (input ligand: arginine 13.2 mM), 45.2 nM under setting [1] and 38.3 nM under setting [2].

Regarding “GCCAUCGGCGGAAGCCGAUGGGAUACAGAAGGAGCGUAGGAAACUACAGGUAGGUCGCUGGACAUGAGGAUCACCCAUGUGAUAG [SSAA #11]”, the “apparent KD of MS2 coat protein” value worked out at 19.6 nM (input ligand: arginine 13.2 mM); 24 nM (input ligand: none); 31.9 nM under setting [1]; 31.6 nM under setting [2]; 22.7 nM under setting [3].

Take “GGAUAGGACGGAAGGAGCGACGUGAGGCUAAUGUCCAGUCUUCUACAUGAGGAUCACCCAUGUCAGGUAGGUCGCCGUCCUAUCG [#21 Exclusion - Arginine B]”: the “apparent KD of MS2 coat protein” value worked out at 30.3 nM (input ligand: arginine 13.2 mM); 28.1 nM (input ligand: none); 51.7 nM under setting [1]; 40.7 nM under setting [2]; 41.8 nM under setting [3].

As for “GGAUGCCACUAUGGAUAGCACGAUGCCGAUACCAGCUAGGAAACUAGCCCUUGGCAGCGGAACAUGAGGAUCACCCAUGUAUCCU [EThA NP+V+V2 #8]”, the “apparent KD of MS2 coat protein” value reads like this: (input ligand: arginine 13.2 mM) 21.3 nM; (input ligand: none) 24.2 nM; under setting [1], 30.5 nM; under setting [2], 42.7 nM; under setting [3], 21.6 nM.

“CCCGACGAGCCUGAGAUUAAGUAAGCGGAUACCAGAGAUAGGUAGCUCCCUUGGCAGCCGUGGACAUGAGGAUCACCCAUGUCAC [theeternabot_exclusion_MS2_Theo_A_22]”: the “apparent KD of MS2 coat protein” value came out at 11.4 nM (input ligand: arginine 13.2 mM), 13.5 nM under setting [1] and 10.9 nM under setting [3].

In the case of “UCAUAAGUACCGGUCCUCAGAUCCUCAUGACGAGGACCGGUACGGCCGCCACUCGAAACAUGAGGAUCACCCAUGUAAUAAUACU [Brourdmod15]”, the “apparent KD of MS2 coat protein” value came to 22.5 nM (input ligand: arginine 13.2 mM), 37.9 nM under setting [1] and 31.9 nM under setting [2].

Consider “CGCAACCAACAUGAGGAUCACCCAUGUGAAGGAGCGCCGAAUAAGGCAGGUAGGUCGCACAUGAAUAAAUCAUGAAGGAAGCGAA [XArg-A 12 NuPack]”, for which the “apparent KD of MS2 coat protein” value by setting is: (input ligand: arginine 13.2 mM) 20.5 nM; (input ligand: none) 36.8 nM; under setting [1], 43.8 nM; under setting [2], 51.2 nM; under setting [3], 31.5 nM.

As to “ACACAUGAGGAUCACCCAUGUCCAAUAGAUACCAGUGAUACAGUGCACCCUUGGCAGCUGUUACUGAGUAAUGGUUCCCUCGGAA [Same State Theophylline A GF2]”, the “apparent KD of MS2 coat protein” value reads like this: (input ligand: arginine 13.2 mM) 26.8 nM; under setting [1], 48.6 nM; under setting [3], 37.5 nM.

Turning to “GGGUGCGGGAUAGAUACCAGUGCCUUAAAAUAGGCACAUGAGGAUCACCCAUGUACCGGGCGCCCUUGGCAGCUAGUACCAUCCA [Edanrele]”, the “apparent KD of MS2 coat protein” value reads like this: (input ligand: arginine 13.2 mM) 93.9 nM; under setting [1], 190 nM; under setting [3], 147 nM.

On to “UCGGUUUUCUACAUGAGGAUCACCCAUGUCCGAGGACCGGUACGGCCGCCACUCGCAAUCAAACAGACGUGGGCCAAAUUUGCGU [Isinso]”, for which the “apparent KD of MS2 coat protein” value is 11.8 nM (input ligand: arginine 13.2 mM), 14.8 nM under setting [1] and 11.6 nM under setting [2].
